Results: patent publication US11419945B2, “Antigen binding proteins” (Glaxo Group Limited, priority 2011, dated 2022)

Assays:
Human commercial BCMA = target: T1, Human commercial BCMA (Homo sapiens, UniProt Q02223); experiment: ProteOn analysis of CA8 chimeric and humanised constructs, commercial human BCMA; type: binding; conditions: Run 2, commercial human BCMA, 25° C.
T1 construct: purchased US Biological B0410
T1 sequence (Q02223 1-184): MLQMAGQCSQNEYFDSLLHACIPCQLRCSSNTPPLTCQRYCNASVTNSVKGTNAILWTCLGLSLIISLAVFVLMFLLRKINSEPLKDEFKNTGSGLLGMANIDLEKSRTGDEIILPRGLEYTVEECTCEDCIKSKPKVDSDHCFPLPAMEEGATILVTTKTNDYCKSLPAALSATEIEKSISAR
Description: The initial screen of CA8 chimeric and humanised variants was carried out on the ProteOn XPR36 (Biorad). The method was as follows; Protein A was immobilised on a GLC chip (Biorad, Cat No: 176-5011) by primary amine coupling, CA8 variants were then captured on this surface and recombinant human BCMA (in house or commercial US Biological, B0410) materials (run 2 only)) passed over at 256, 64, 16, 4, 1 nM with a 0 nM injection (i.e. buffer alone) used to double reference the binding curves, the buffer used is the HBS-EP buffer. 50 mM NaOH was used to regenerate the capture surface. The data was fitted to the 1:1 model using the analysis software inherent to the ProteOn XPR36. Run 1 corresponds to the first screen of humanised CA8 variants (JO to J5 series) and run 2 to the second screen of humanised CA8 variants (J5 to J9 series). Both runs were carried out at 25° C.

[1] = target: T2, ARH77-hBCMA 10B5 BCMA expressing transfectant cells (Homo sapiens, UniProt Q02223); experiment: FACS binding of humanised CA8 to BCMA transfected cells; conditions: varying concentrations, 20 minutes at RT
T2 construct: expressed in transfected cells; host or cells: ARH77 (clone 10B5)
T2 sequence (Q02223 1-184): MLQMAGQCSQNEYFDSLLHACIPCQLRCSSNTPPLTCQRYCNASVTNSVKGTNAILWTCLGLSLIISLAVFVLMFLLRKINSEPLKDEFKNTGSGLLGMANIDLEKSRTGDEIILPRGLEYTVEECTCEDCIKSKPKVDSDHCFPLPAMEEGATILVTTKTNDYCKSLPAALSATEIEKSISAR
Description: (§1) ARH77-hBCMA 10B5 BCMA expressing transfectant cells or H929 cells were stained with either chimeric CA8 or humanised variants of CA8 designated J6M0, J6M1, J6M2, J9M0, J9M1, J9M2 at varying concentrations for 20 minutes at RT. Cells were then washed with FACS buffer (PBS+0.5% BSA+0.1% sodium azide) to remove unbound antibody. Cells were incubated with a secondary PE labelled anti-human IgG antibody for 15 minutes at RT and then washed with FACS buffer to remove unbound antibody. Cells were analysed by FACS and mean fluorescence intensity (MFI) values measured to determine binding.

human BCMA HEK293 = target: T3, human BCMA HEK293 (Homo sapiens, UniProt Q02223); experiment: FMAT binding assay, human BCMA expressing HEK293 cells; conditions: range of antibody concentrations
T3 construct: expressed in transfected cells; host or cells: HEK293
T3 sequence (Q02223 1-184): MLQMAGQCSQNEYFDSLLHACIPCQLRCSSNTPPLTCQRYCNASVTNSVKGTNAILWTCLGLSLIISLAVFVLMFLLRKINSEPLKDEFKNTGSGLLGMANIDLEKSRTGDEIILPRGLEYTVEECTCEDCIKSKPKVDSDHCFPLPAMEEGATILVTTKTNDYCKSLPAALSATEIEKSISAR
Description: Cryopreserved transfected human, cyno BCMA and mock transfected HEK293 cells were recovered from LN2 storage. Assay wells were prepared with human chimeric CA8 antibody, at a range of different concentrations, mixed with human BCMA HEK293, cyno BCMA HEK293 and mock transfected cells respectively. Anti-human IgG FMAT Blue secondary conjugate was added for detection of human chimeric CA8. The assay plates were left for a minimum of 90 minutes before the result was read on the ABI8200 (FMAT) plate reader.

BAFF-R-Fc = experiment: Biacore cross reactivity experiment, BAFF-R-Fc; type: binding; conditions: antibody captured on protein A; listed as CA8 chimera antibody
Description: (§2) CA8 chimera antibody was injected and captured on protein A. (A protein A derivitised sensorchip was used). Residual protein A binding was blocked with an injection of a high concentration of human IgG solution. BCMA-Fc, TACI-Fc or BAFF-R-Fc solutions were then tested for binding to the antibody. The 3 proteins were injected in sequence and binding events were measured. The surface was regenerated between injection of each protein.
(§3) Sensorgrams were analysed in the Biaevaluation program. Double reference subtraction was done to remove instrument noise and any non-specific binding from the sensorgram curves.

[2] = tested on: multiple myeloma cell lines H929, OPM-2, JJN-3 and U266; experiment: FACS binding curve of chimeric CA8 to multiple myeloma cells; parameters: species or system human; conditions: varying concentrations, 20 minutes at RT
Description: A panel of multiple myeloma cell lines were used to determine the binding of chimeric CA8. […] Cells were then washed with FACS buffer (PBS+0.5% BSA+0.1% sodium azide) to remove unbound antibody. Cells were incubated with a secondary PE labelled anti-human IgG antibody for 15 minutes at RT and then washed with FACS buffer to remove unbound antibody. Cells were analysed by FACS and mean fluorescence intensity (MFI) values measured to determine binding.

cyno BCMA-Fc = experiment: ELISA binding to recombinant cyno BCMA-Fc; conditions: 5 ug/ml to 0.1 ug/ml antibody
Description: Chimeric CA8 antibodies were tested for binding to human BCMA and cyno BCMA expressed as Fc fusions. Human BCMA-Fc and cyno BCMA-Fc were coated to ELISA plates and the plates were blocked using BSA to reduce non specific binding. CA8 chimeric antibodies were added in a concentration range from 5 ug/ml to 0.1 ug/ml to the human and cyno BCMA coated ELISA plates. Any bound human chimeric CA8 antibody was detected using anti-human IgG HRP conjugated secondary antibody as appropriate. HRP substrate (TMB) was added to develop the ELISA.

BCMA-Fc = experiment: Biacore cross reactivity experiment, BCMA-Fc; type: binding; conditions: antibody captured on protein A
Description: as §2, §3

[3] = tested on: human multiple myeloma cell lines NCI-H929, U266-B1, JJN3 and OPM2; experiment: ADC activity of chimeric CA8 ADCs, 4 multiple myeloma cell lines (Cell titre Glo, 96 hours); type: cell-based; conditions: 1 ug/ml to 5 ng/ml, all 4 cell lines
Description: FIG. 11: Viability assay dose response curves—Figure showing dose response curves in a cell viability assay for chimeric CA8 antibody, chimeric CA8-vcMMAE and chimeric CA8-mcMMAF antibody-drug conjugates in human multiple myeloma cell lines NCI-H929, U266-B1, JJN3 and OPM2. Antibody was added to the cells and the number of viable cells after 96 hours measured using CelltiterGlo. Data points represent the mean of triplicate CellTiterGlo measurements. Error bars represent standard error.
Multiple Myeloma cell lines were treated with chimeric CA8 antibody-drug conjugates to determine the ADC concentrations required for growth inhibition and death.
The antibody drug conjugates tested were added to wells containing multiple myeloma cells at concentrations ranging from 1 ug/ml to 5 ng/ml. The plates were incubated at 37° C. for 96 hours at which point viable cells were quantitated using Cell titre Glo.

H929 cells = experiment: FACS binding of humanised CA8 to H929 cells; parameters: species or system human; conditions: varying concentrations, 20 minutes at RT
Description: as §1

Chain of cyno BCMA-Fc (as listed by the source): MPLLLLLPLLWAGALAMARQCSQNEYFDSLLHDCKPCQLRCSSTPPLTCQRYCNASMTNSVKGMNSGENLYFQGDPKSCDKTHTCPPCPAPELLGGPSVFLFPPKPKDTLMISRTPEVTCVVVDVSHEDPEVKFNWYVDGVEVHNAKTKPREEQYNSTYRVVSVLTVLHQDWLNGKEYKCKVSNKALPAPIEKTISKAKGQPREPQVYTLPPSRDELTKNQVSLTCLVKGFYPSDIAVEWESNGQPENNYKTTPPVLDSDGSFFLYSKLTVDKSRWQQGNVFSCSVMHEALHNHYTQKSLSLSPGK
Chain of BAFF-R-Fc (Q96RJ3 1-78 limits assumed): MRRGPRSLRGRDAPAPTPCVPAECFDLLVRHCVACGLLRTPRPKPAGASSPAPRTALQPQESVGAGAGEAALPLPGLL

B1: CA8 Chimera: chimeric anti-BCMA antibody: murine CA8 VH (SEQ ID NO:7) and VL (SEQ ID NO:9) on human γ1 and kappa constant regions (antibody, V domains shown)
VH: EVQLQQSGAVLARPGASVKMSCKGSGYTFTNYWMHWVKQRPGQGLEWIGATYRGHSDTYYNQKFKGKAKLTAVTSTSTAYMELSSLTNEDSAVYYCTRGAIYNGYDVLDNWGQGTLVTVSS
VL: DIQLTQTTSSLSASLGDRVTISCSASQDISNYLNWYQQKPDGTVELVIYYTSNLHSGVPSRFSGSGSGTDYSLTIGYLEPEDVATYYCQQYRKLPWTFGGGSKLEIKR
modifications: human IgG1 and kappa constant regions; mus musculus
With B1 the ka (Human commercial BCMA; in M-1s-1 (unit assumed)) was 7.05E+05, the kd (Human commercial BCMA; in s-1 (unit assumed)) was 9.79E−05 and the “dose dependent binding to ARH77-hBCMA 10B5 cells by FACS (MFI)” value [1] was “bound”. The “binding to human BCMA expressed on HEK293 cells” value (human BCMA HEK293) was “binds well”, the “binding to BAFF-R-Fc” value (BAFF-R-Fc) was “does not bind” and the “binding to multiple myeloma cell lines by FACS (MFI)” value [2] was “bound to multiple myeloma cell lines H929, OPM-2, JJN-3 & U266 in a dose dependent manner”. For the same molecule, the “binding to recombinant cyno BCMA (ELISA)” value (cyno BCMA-Fc; listed as Chimeric CA8) was “binds to recombinant human and cyno BCMA”, the “binding to recombinant cyno BCMA (ELISA)” value (cyno BCMA-Fc; listed as human chimeric CA8 antibodies) was “bind to human and cyno BCMA proteins equally” and the “binding to BCMA-Fc” value (BCMA-Fc) was “specific for binding to BCMA”. For the same molecule, the growth inhibitory activity [3] was “no significant growth inhibitory activity” and the “dose dependent binding to H929 cells by FACS (MFI)” value (H929 cells) was “bound”.
